Source: patent US20120077731A1 (Ablynx, published 2012)
Values joined by “and” are separate entries in the source; they are usually repeats but may differ in a detail not shown here. Equal values may be shown once.

T1: Cyno plasma sIL-6R (cynomolgus monkey, UniProt A0A2K5WN54 60-396)
T1 construct: also called cynomolgus sIL-6R
T1 sequence: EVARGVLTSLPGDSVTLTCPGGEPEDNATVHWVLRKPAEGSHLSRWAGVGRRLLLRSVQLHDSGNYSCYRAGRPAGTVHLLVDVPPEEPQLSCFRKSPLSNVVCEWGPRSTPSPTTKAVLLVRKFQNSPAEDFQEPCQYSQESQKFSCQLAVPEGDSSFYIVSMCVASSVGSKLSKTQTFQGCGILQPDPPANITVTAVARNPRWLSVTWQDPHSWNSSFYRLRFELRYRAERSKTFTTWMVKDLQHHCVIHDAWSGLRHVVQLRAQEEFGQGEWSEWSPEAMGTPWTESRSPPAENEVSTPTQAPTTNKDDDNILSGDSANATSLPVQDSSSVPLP

T2: Human plasma sIL-6R (human, UniProt P08887 20-355, limits assumed)
T2 construct: also called plasma-derived human IL-6R
T2 sequence (looked up): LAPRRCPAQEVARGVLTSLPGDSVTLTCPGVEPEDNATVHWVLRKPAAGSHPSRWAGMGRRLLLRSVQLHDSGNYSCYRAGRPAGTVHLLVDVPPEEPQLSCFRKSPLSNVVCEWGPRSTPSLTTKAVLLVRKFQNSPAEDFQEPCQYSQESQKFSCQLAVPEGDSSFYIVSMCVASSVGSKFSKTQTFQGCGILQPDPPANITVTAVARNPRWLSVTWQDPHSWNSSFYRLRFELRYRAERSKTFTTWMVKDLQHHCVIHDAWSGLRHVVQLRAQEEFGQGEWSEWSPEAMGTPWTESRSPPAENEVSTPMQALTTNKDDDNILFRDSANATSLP

T3: Human membrane IL-6R on cells (human, UniProt P08887 20-468)
T3 sequence (looked up): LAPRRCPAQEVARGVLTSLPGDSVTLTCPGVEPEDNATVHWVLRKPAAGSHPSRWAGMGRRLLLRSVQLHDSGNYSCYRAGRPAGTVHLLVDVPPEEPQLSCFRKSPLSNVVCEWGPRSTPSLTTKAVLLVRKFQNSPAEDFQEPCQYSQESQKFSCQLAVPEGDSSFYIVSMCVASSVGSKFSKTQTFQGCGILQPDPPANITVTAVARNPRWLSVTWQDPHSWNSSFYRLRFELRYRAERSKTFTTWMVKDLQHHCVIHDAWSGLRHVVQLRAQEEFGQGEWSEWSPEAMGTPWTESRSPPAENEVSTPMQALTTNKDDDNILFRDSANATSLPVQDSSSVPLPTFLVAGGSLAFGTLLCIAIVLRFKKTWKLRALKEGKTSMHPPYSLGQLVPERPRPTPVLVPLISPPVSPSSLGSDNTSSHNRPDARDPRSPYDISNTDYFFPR

T4: Mouse IL-6R (mouse, UniProt P22272 20-364, limits assumed)
T4 construct: also called mouse sIL-6R
T4 sequence (looked up): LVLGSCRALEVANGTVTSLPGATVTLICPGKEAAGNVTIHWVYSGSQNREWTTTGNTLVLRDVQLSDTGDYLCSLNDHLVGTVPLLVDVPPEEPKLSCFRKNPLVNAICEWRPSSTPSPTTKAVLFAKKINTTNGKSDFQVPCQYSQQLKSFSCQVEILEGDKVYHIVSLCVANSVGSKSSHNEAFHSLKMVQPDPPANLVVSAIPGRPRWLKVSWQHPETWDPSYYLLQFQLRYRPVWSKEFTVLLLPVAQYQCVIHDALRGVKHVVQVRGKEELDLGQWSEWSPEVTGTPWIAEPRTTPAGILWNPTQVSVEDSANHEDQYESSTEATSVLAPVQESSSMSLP

T5: Cyno IL-6R (cynomolgus monkey, UniProt A0A2K5WN54 60-396)
T5 construct: also called cynomolgus monkey IL-6R; recombinant cyno sIL-6R
T5 sequence: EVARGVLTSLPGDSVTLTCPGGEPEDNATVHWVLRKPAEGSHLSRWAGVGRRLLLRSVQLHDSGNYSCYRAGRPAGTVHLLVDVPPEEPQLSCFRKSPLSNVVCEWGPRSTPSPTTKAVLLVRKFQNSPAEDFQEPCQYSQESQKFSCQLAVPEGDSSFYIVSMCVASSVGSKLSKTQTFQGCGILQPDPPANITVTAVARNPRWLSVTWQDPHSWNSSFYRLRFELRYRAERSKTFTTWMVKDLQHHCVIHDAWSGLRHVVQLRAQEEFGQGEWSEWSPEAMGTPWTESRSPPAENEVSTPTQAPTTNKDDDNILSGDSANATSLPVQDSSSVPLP

B1: Human soluble IL-6R (receptor, UniProt P08887 20-358, looked up)
chain: LAPRRCPAQEVARGVLTSLPGDSVTLTCPGVEPEDNATVHWVLRKPAAGSHPSRWAGMGRRLLLRSVQLHDSGNYSCYRAGRPAGTVHLLVDVPPEEPQLSCFRKSPLSNVVCEWGPRSTPSLTTKAVLLVRKFQNSPAEDFQEPCQYSQESQKFSCQLAVPEGDSSFYIVSMCVASSVGSKFSKTQTFQGCGILQPDPPANITVTAVARNPRWLSVTWQDPHSWNSSFYRLRFELRYRAERSKTFTTWMVKDLQHHCVIHDAWSGLRHVVQLRAQEEFGQGEWSEWSPEAMGTPWTESRSPPAENEVSTPMQALTTNKDDDNILFRDSANATSLPVQD
notes: Soluble recombinant form; biotinylated in some assays; also called hIL-6R; human IL-6R

Experiments:
[1] = target: T1, Cyno plasma sIL-6R; experiment: plasma potency ELISA, cyno plasma + human IL-6 50 ng/mL; sIL-6R captured on BN-12, bound IL-6 detected; blocked ligand IL-6
[2] = target: B1; experiment: Alphascreen, inhibition of bio-IL-6 binding to IL-6R
Protocol: (§1) Finally streptavidin donor beads were added and after 1 hour incubator the plate was read on the Envision microplate reader.

[3] = target: T2, Human plasma sIL-6R; experiment: plasma potency ELISA, human plasma, IL-6 at EC95 (885 ng/mL)
[4] = target: T3, Human membrane IL-6R on cells; experiment: cell-based or functional assay
[5] = target: T2, Human plasma sIL-6R; experiment: plasma potency ELISA, human plasma, IL-6 at EC50 (50 ng/mL)
[6] = target: T3, Human membrane IL-6R on cells; experiment: cell-based or functional assay; remark: listed apart in the source
[7] = target: T2, Human plasma sIL-6R; experiment: plasma potency ELISA, human plasma + human IL-6 50 ng/mL; sIL-6R captured on BN-12, bound IL-6 detected; blocked ligand IL-6
[8] = target: T3, Human membrane IL-6R on cells; experiment: cell-based or functional assay; remark: listed apart in the source
[9] = target: T4, Mouse IL-6R; experiment: ELISA: plate coated with 1 µg/ml mouse IL-6R; concentration and detection of this control not told
[10] = target: B1; experiment: Alphascreen, inhibition of bio-IL-6 binding to IL-6R; remark: listed apart in the source
Protocol: as §1

[11] = target: B1; experiment: summary table C-13 of Nanobody characteristics, Kd on IL-6R
Protocol: (§2) Nanobodies were injected at 5 different concentrations between 1 and 50 nM. Flow rate was 45 μl/min in all experiments. Association and dissociation phase were 3 and 10 min, respectively. The chip was regenerated using Glycine/HCl pH 1.5.

[12] = target: B1; experiment: SPR Biacore 3000, IL-6R amine-coupled to CM5; second koff of IL6R02; the one that fits kon and Kd
Protocol: as §2

[13] = target: B1; experiment: inhibition of the IL-6/IL-6R interaction, summary table C-13
Protocol: as §1

[14] = target: B1; experiment: competition for IL-6R, competitor reference Fab, summary table C-13
[15] = target: T3, Human membrane IL-6R on cells; experiment: cell-based or functional assay; remark: listed apart in the source
[16] = target: T4, Mouse IL-6R; experiment: ELISA: plate coated with 1 µg/ml mouse IL-6R, 500 nM Nanobody, anti-myc + anti-mouse-HRP
Protocol: Detection was performed with anti-myc and anti-mouse-HRP as first and second antibody respectively.

[17] = target: B1; experiment: SPR Biacore 3000, IL-6R amine-coupled to CM5
Protocol: as §2

[18] = target: B1; experiment: Biacore off-rate, periplasmic extract
[19] = target: B1; experiment: Alphascreen, 100 nM Nanobody, 0.4 nM bio-IL-6R; competitor: reference Fab
[20] = target: T6, PMP20A11; experiment: competitive binding ELISA, 0.05 nM IL6R20A11 pre-incubated with sIL-6R, free Nanobody captured on sIL-6R
T6 construct: also called IL6R20A11; IL6R300; not shown: c-myc and (His)6 tags

[21] = target: T6, PMP20A11; experiment: competition ELISA: IL6R20A11 (0.4 nM) pre-incubated with a series of recombinant sIL-6R; free IL6R20A11 captured on biotinylated human sIL-6R on neutravidin
[22] = target: B1; experiment: Alphascreen IL-6/IL-6R competition with purified Nanobody; row EC50 of the table, axis [inhibitor], M; blocked ligand IL-6
[23] = target: T5, Cyno IL-6R; experiment: SPR Biacore 3000, cyno IL-6R amine-coupled to CM5
Protocol: Remaining reactive groups were inactivated. […] Each sample was injected for 4 min at a flow rate of 45 μl/min to allow for binding to chip-bound antigen. Next, binding buffer without Nanobody was sent over the chip at the same flow rate to allow for dissociation of bound Nanobody.

[24] = target: B1; experiment: Alphascreen IL-6/IL-6R competition (IL-6R 0.3 nM, bio-IL-6 3 nM); row EC50 of the fit table, axis [competitor], M; blocked ligand IL-6
[25] = target: T2, Human plasma sIL-6R; experiment: plasma potency ELISA in human plasma at the EC50 of IL-6 (50 ng/mL); blocked ligand IL-6
[26] = target: T2, Human plasma sIL-6R; experiment: plasma potency ELISA in human plasma at the EC95 of IL-6 (885 ng/mL); blocked ligand IL-6
[27] = target: B1; experiment: Biacore, binding to IL-6R (parent value)
[28] = target: T3, Human membrane IL-6R on cells; experiment: cell-based or functional assay; remark: listed apart in the source

IC50 (nM), XG-1 cell proliferation [4] [nM] | IC50 (nM), TF1 cell proliferation [8] [nM] | IC50 [10] [pM] | Kd [11] [pM] | IC50 [13] [pM] | Ref Fab competition (%) [14] [%] | IC50 (nM) XG-1 [15] [nM] | binding result [16] | Kd [17] [pM] | koff [17] | kon [17] [M⁻¹ s⁻¹] | koff [18] [s⁻¹] | Residual reference-Fab binding to IL-6R (%) [19] [%] | Binder | also measured
6 | 9.2 | – | – | – | – | – | – | – | – | – | – | – | Reference Fab (Fab, V domains shown, Built from RVLa and RVHf of EP 0628639; expressed in E. coli periplasm) VH: QVQLQESGPGLVRPSQTLSLTCTVSGYSITSDHAWSWVRQPPGRGLEWIGYISYSGITTYNPSLKSRVTMLRDTSKNQFSLRLSSVTAADTAVYYCARSLARTTAMDYWGQGSLVTVSS VL: DIQMTQSPSSLSASVGDRVTITCRASQDISSYLNWYQQKPGKAPKLLIYYTSRLHSGVPSRFSGSGSGTDFTFTISSLQPEDIATYYCQQGNTLPYTFGQGTKVEIKR | IC50 (read off the curve) [1]: ~100 pM; IC50 [2]: 592 pM; IC50 [3]: 8470 pM; IC50 [5]: 550 pM; IC50 (nM), TF-1 proliferation at 100 IU/mL IL-6 [6]: 6.26 nM; IC50 (read off the curve) [7]: ~300 pM; binding result [9]: no binding (tested: not given)
31 | 94.7 | 1690 | 5900 | 1690 | 86 | 31 | no binding (tested: 500 nM) | 5900 | 0.00294 s⁻¹ | 840000 | 0.00294 | 86 | IL6R02 (VHH, also called PMP30C11; not shown: C-terminal c-myc and (His)6 tags) VHH: EVQLVESGGGLVQAGGSLRLSCAASGRTFSSYDMGWYRQAPGKEREFVAVISRSGSSTYYADSVKGRFTISRDNAKNTVYLQMNSLKPEDTAIYYCKAEVVAGDYDYWGQGTQVTVSS | koff [12]: 0.00495 s⁻¹
– | – | – | – | – | – | – | – | – | – | – | – | – | B1 | IC50 [20]: 30 pM; IC50 (read off the curve) [21]: ~1 ng/mL
0.1 | 0.4 | 93 | 300 | 90 | 50 | 0.1 | no binding (tested: 500 nM) | 300 | 9.42e-05 s⁻¹ and 0.00015 s⁻¹ | 365000 | 0.00015 | 50 | IL6R04 (VHH, also called PMP32C9; not shown: C-terminal c-myc and (His)6 tags) VHH: EVQLVESGGGLVQAGGSLRLSCAASGFTFDDYDIGWFRQAPGKEREGVSGISSSDGNTYYADSVKGRFTISSDNAKNTVYLQMNSLKPEDTAVYYCAAEPPDSSWYLDGSPEFFKYWGQGTQVTVSS | IC50 [22]: 56.8 pM; Kd [23]: 171000 pM; koff [23]: 0.01 s⁻¹; kon [23]: 58600 M⁻¹ s⁻¹; IC50 [24]: 180 pM; IC50 (nM) + HSA, XG-1 cell proliferation [4]: 0.1 nM; IC50 (read off the curve) [25]: ~200 pM; IC50 (read off the curve) [26]: ~400 pM; Kd [27]: 300 pM; IC50 values (nM), XG-1 assay [28]: 0.1 nM
